How the values were obtained:
Assay in all cases: FRET or BRET; two-photon FLIM-FRET in living HeLa cells co-transfected with 0.5 μg of each plasmid, 24 h post transfection; eGFP fusion as donor, mCherry or mCherry fusion as acceptor; E from the donor lifetime with and without acceptor; read at the nuclear envelope, in the cytoplasm, in the nucleus and over the whole cell
[1] = molecular target: W54G Vpr-mCherry (HIV-1 (strain LAI))
[2] = molecular target: mCherry-Vpr (HIV-1 (strain LAI))
[3] = molecular target: Vpr-mCherry (HIV-1 (strain LAI))
[4] = molecular target: R90K Vpr-mCherry (HIV-1 (strain LAI))
[5] = molecular target: R77Q Vpr-mCherry (HIV-1 (strain LAI))
[6] = molecular target: I60A Vpr-mCherry (HIV-1 (strain LAI))
[7] = molecular target: Q3R Vpr-mCherry (HIV-1 (strain LAI))

With W54G Vpr-eGFP (natural protein) the FRET efficiency E (whole cell) [1] was 16%.

Work on eGFP-Vpr (natural protein) yielded an FRET efficiency E (cytoplasm) [2] of 7%, an FRET efficiency E (nuclear envelope) [2] of 13% and an FRET efficiency E (nucleus) [2] of 6%. It also gave an FRET efficiency E (whole cell) [2] of 8%, an FRET efficiency E (cytoplasm) [3] of 9% and an FRET efficiency E (nuclear envelope) [3] of 13%. The FRET efficiency E (nucleus) [3] was 6% and the FRET efficiency E (whole cell) [3] was 9%.

R90K Vpr-eGFP (natural protein) gave an FRET efficiency E (whole cell) [4] of 18%.

R77Q Vpr-eGFP (natural protein) was tested, and the FRET efficiency E (whole cell) [5] was 22%.

Substance Vpr-eGFP (natural protein) has an FRET efficiency E (cytoplasm) [2] of 14%, an FRET efficiency E (nuclear envelope) [2] of 17% and an FRET efficiency E (nucleus) [2] of 13%. It also gave an FRET efficiency E (whole cell) [2] of 15%, an FRET efficiency E (cytoplasm) [3] of 23% and an FRET efficiency E (nuclear envelope) [3] of 27%. The FRET efficiency E (nucleus) [3] was 19% and the FRET efficiency E (whole cell) [3] was 23%.

With I60A-Vpr-eGFP (natural protein) the FRET efficiency E (nucleus) [6] was 7% and the FRET efficiency E (whole cell) [6] was 6%.

Q3R Vpr-eGFP (natural protein) was tested, and the FRET efficiency E (whole cell) [7] was 19%.

Reference: paper PMC2562391
